Data taken from a protein production outcome set (Wang et al. 2014).

Experiment: label from the status in PepcDB records
For “MGNLPALSWGPAGPLARTCGTSYGASDAQDLRRHAKIGSVELTLLGTGAPAGLPRPDCPCAACATALGEAARAATALLVDGTVLLDLTPGAAFAAARAGRSLGGVRQVLLSHPHNGPAVEVPAGLPQPARVPDGRELALLTGHRVRAMPMDAPGTGYAVTGPDGQRLLYLPPGGAPAGLDETVQPYDMVAADVVGRPDALARLRAVGALGPTTDVIAVHLDHDVPPGVELRRRLAAAGARAVPDGTTLTVGVYEDVPDVPRRTLVLGGARSGKSVEAERRLESFPDVLYVATGGSRGGDTEWAERVSVHRERRPGSWRTVETCDLVPLLKEDGPPLLIDCLSLWLTDAMDSVNAWDDDEWAGGGERALRGRVEELTAAVRETGRTVVAVSNEVGSGIVPATASGRRYRDELGRLNAAFAAECEHLLLVVAGQAMVLRGG”, the protein production was “failed”. In the case of “MGNLPPHYGGSVNLLIAALGVLGVASSGPLIAGTLGATSVTALAIAFWRNAIGAVVMAGPVVIREPKAFGRITRREFGWSAVAAVALAFHFACFITALQLTSVAAATALVCLQSGWIAVFQLFRGTRHRWPVLVGLGIAFGGVVAITGFDMGSSPEALLGDLLALAGGALAGLYTLAGGKARQSMGTGTYTTLCYGMCAAIVAVMALFSGQPLAGFDAGGWLGIIAITVCAQLVGHTAFNHLLATMSPLLVSMIILLEIPGAAILAAIFLNETLPAGTYAGLALILVGLAVVVSGQRRGRPVADRREAELGAD”, the protein production is reported as “failed”. With “MGNLSLGELELTVLYDEERYDIVEQTETVQVDLEGPRGVLTVFRFARPSYEVFVDLTEAGEGSHTVDVEHRGFPGDLAVTVEPRLEHHHHHH” the protein production was “failed”. In the case of “MGNQFSINRNRPANAGEAHASSTEAKPAPDAASPSRQVRVATAPSILEGLRKLRLPFNFGARVPPLPEETWAEIARRVDTKTLHRMRAVSKTLKAAADTEIRQLTVNTVEALQAAKRYACLETLKMDGYFGDADLEGLPASLRELDLFSTRYVSAKGLAHLSKLPLVRLKVRANGIHAEAARALAASTTLTALDIRGNGIGDAGAQALAANTSITSLDASFNDIGVAGARALAANTTLTSLDLGFNAIGDEGLQALATNTSLTSLTVGSCEIGDAGAAALANNTALTSVDLTCNHIGEEGAEGLAANTVLTSLDLTRNSISDRGAAALAGNTTLTSLCVNFNDIYGRGARWLAENTTLTTLDISYNPIGDWGALGLADNMTLRSLSVVAGRIGVEGARALAGNTTLTTLDISVNAIGNEGAQALAANATLTTLSLRSCELRAAAAEAFKANTTLASLDIGENRIEAAGAQALADNTALTTLRVTGNQIGMAGAQALAANRSLTKLNISQNDIRSAGAQALAANTSLTSLDVSSASIGAAGAQALAANTSITWLNINDNHIGDAGAQALAAHPALTSLYACDNFIGTAGVQALAANTRLTSLSIWGNRIGDAGVKALAANTTLTKLTIGKRVDKQLGEQIGDLAWQELMASVDRSGMTFHSL”, the protein production is reported as “failed”. With “MGNTDKLMNQIFDLKFTSKSLQRQSRKCEKEEKAEKLKVKKAIEKGNMDGARIYAENAIRKRSEQMNYLRLASRLDAVVARLDTQAKMTTITKSMTNIVKSLESSLATGNLQKMSETMDSFEKQFVNMEVQAEFMENAMAGSTSLSTPEGEVNSLMQQVADDYGLEVSVGLPQPAGHAIPTKTEEKVDEDDLSRRLAELKARG” the protein production was “failed”. With “MGNYMTYIVGLTGGIGSGKTTIANLFTDLGVPLVDADVVAREVVAKDSPLLSKIVEHFGAQILTEQGELNRAALRERVFNHDEDKLWLNNLLHPAIRERMKQKLAEQTAPYTLFVVPLLIENKLTALCDRILVVDVSPQTQLARSAQRDNNNFEQIQRIMNSQVSQQERLKWADDVINNDAELAQNLPHLQQKVLELHQFYLQQAENKNA” the protein production was “not failed”. In the case of “MGPTLGPAPLRGKSIPMNRTGRALTLGCLLLLQPLLAHAQAGGNSLLIPALGRCTLDPQAQDQAEALTACQKAADEGDAEAQYELGEFYYEGKGAPQDFNQALSYFEKASLQGHAQAQFKLGTMFFHGEGVPANNVQAYIVLKMAAVNGAEDALDTADEVAEHMQRDELEVATQVLGQIFRKYLMELQSADGRSPFSPLP”, the protein production is reported as “failed”. For “MGQAFAALSVWQVMGYGLVFFGGIYLLFGAATWLLTRRVLPALGVGRPLDPRPLGPGQWRREFLQSGLSVLIFGLGMVFPWGLVQLGWARLDDDAGPWRIVAEILVLVIWNDVHFWINHRLLHTRLLRRFHLPHHRSVVTTPFSTYSFHPIEALMLGNVILLPMVVHDFSFWSLLSVPLFSLFFNCVGHANYDFFPGVSYAHWFAASRRHHLHHACYQGNFGFQFTFMDRLFGTRLGADAAQGQLAAYRKRGAVGSAR”, the protein production was “failed”. With “MGQALGCIQVDQSNVAIKETFGKFDEVLEPGCHCLPWCLGSQVAGHLSLRVQQLDVRCETKTKDNVFVTVVASIQYRALAESAQDAFYKLSNTRNQIQAYVFDVIRASVPKLDLDSTFEQKNDIAKTVETELEKAMSHYGYEIVQTLIVDIEPDVHVKRAMNEINAASRMREAASEKAEAEKILQIKRAEGEAESKYLSGMGIARQRQAIVDGLRNSVLAFSESVPGTSSKDVMDMVLVTQYFDTLKEIGASSKSNSVFIPHGPGAVRDIASQIRDGLLQGNSAAE” the protein production was “failed”. With “MGQIGVEITGVITDISEIKTFKRRDGSLGKYKRITIADKSGTIRMTLWDDLAELDVKVGDVIKIERARARKWRNNLELSSTSETKIKKLENYEGELPLEHHHHHH” the protein production was “not failed”. In the case of “MGQKIHAFMFPWFAFGHMTPYLHLGNKLAEKGHRVTFLLPKKAQKQLEHQNLFPHGIVFHPLVIPHVDGLPAGAETASDIPISLVKFLSIAMDLTRDQIEAAIGALRPDLILFDLAHWVPEMAKALKVKSMLYNVMSATSIAHDLVPGGELGVAPPGYPSSKALYREHDAHALLTFSGFYKRFYHRFTTGLMNCDFISIRTCEEIEGKFCDYIESQYKKKVLLTGPMLPEPDKSKPLEDQWSHWLSGFGQGSVVFCALGSQTILEKNQFQELCLGIELTGLPFLVAVKPPKGANTIHEALPEGFEERVKGRGIVWGEWVQQPSWQPLILAHPSVGCFVSHCGFGSMWESLMSDCQIVFIPVLNDQVLTTRVMTEELEVSVEVQREETGWFSKENLSGAIMSLMDQDSEIGNQVRRNHSKLKETLASPGLLTGYTDKFVDTLENLVNEQGYIS”, the protein production is reported as “failed”. In the case of “MGRAFEYRRAAKEKRWDKMSKVFPKLAKAITLAAKDGGSEPDTNAKLRTAILNAKAQNMPKDNIDAAIKRASSKEGNLSEITYEGKANFGVLIIMECMTDNPTRTIANLKSYFNKTQGASIVPNGSLEFMFNRKSVFECLKNEVENLKLSLEDLEFALIDYGLEELEEVEDKIIIRGDYNSFKLLNEGFESLKLPILKASLQRIATTPIELNDEQMELTEKLLDRIEDDDDVVALYTNIE”, the protein production is reported as “failed”. With “MGRDYQSEALAEQHLREAHLLAPDHAAVLIGLYRFYFYKGRLGEALEVAQACLCKAARDNGLASDWRKVRRGDAEFSSYSAVLPRFYLFALKAYAYLQMRLGQLDEGHAAVEKLLELDPTDKVGAAVLLDVWRRIGLEHHHHHH” the protein production was “failed”. For “MGREFIPLFEDWAATYDQTVQGLDIQYKEAFRGYDHILDAIVRKSGTHVLEFGPGTGNLTAKLLDAGKTVFGIEPSPAMRKLASDKLSGRTEIVDGDFLTFPEPPFQADTIVSSYAFHHLTDEEKRAAIKQYGKYLHLHDKIVFADTVFENAQAYQQAIDKARSQGFYQLANDLETEHYPTLDALKEMFTAEGFAVRFTQQNDFVWIMEAIKRLEHHHHHH”, the protein production was “failed”. With “MGRISSGGMMFKAITTVAALVIATSAMAQDDLTISSLAKGETTKAAFNQMVQGHKLPAWVMKGGTYTPAQTVTLGDETYQVMSACKPHDCGSQRIAVMWSEKSNQMTGLFSTIDEKTSQEKLTWLNVNDALSIDGKTVLFAALTGSLENHPDGFNFK” the protein production was “not failed”. For “MGRKDSLDLEEEAASGASSALEAGGSSGLEDVLPLLQQADELHRGDEQGKREGFQLLLNNKLVYGSRQDFLWRLARAYSDMCELTEEVSEKKSYALDGKEEAEAALEKGDESADCHLWYAVLCGQLAEHESIQRRIQSGFSFKEHVDKAIALQPENPMAHFLLGRWCYQVSHLSWLEKKTATALLESPLSATVEDALQSFLKAEELQPGFSKAGRVYISKCYRELGKNSEARWWMKLALELPDVTK”, the protein production was “failed”.
